Source: FireProtDB (doi:10.1002/pro.5560040106)

Conditions: Bacillus subtilis (strain 168), pH 7, Urea, CD, Potassium phosphate 10 mM, reversible: yes, whole UniProt chain shown

B1: Phosphocarrier protein HPr wild type, P08877 (protein)
chain: MAQKTFKVTADSGIHARPATVLVQTASKYDADVNLEYNGKTVNLKSIMGVMSLGIAKGAEITISASGADENDALNALEETMKSEGLGE
10 °C
  denaturant m value: 1.04 kcal/mol/M
  denaturant midpoint (higher = more stable): 3.32 M
  unfolding free energy: 3.45 kcal/mol
15 °C
  denaturant m value: 1.06 kcal/mol/M
  denaturant midpoint (higher = more stable): 3.52 M
  unfolding free energy: 3.73 kcal/mol
25 °C
  denaturant m value: 1.08 kcal/mol/M
  denaturant midpoint (higher = more stable): 3.9 M
  unfolding free energy: 4.21 kcal/mol
35 °C
  denaturant m value: 1.05 kcal/mol/M
  denaturant midpoint (higher = more stable): 3.77 M
  unfolding free energy: 3.96 kcal/mol
40 °C
  denaturant m value: 1.04 kcal/mol/M
  denaturant midpoint (higher = more stable): 3.64 M
  unfolding free energy: 3.79 kcal/mol
